# From patent publication US11059903B2, “Anti-PSMA antibodies, uses thereof and conjugates thereof” (Polytherics Limited, priority 2016, dated 2021)
# B1: AB-03: Humanised anti-PSMA antibody, heavy chain SEQ ID No 7, light chain SEQ ID No 8 (antibody, V domains shown)
# VH: EVQLVQSGAEVKKPGASVKVSCKASGYTFTEYTIHWVRQAPGKGLEWIGNINPNNGGTTYNQKFEDRVTITVDKSTSTAYMELSSLRSEDTAVYYCAGGWTFDYWGQGTTVTVSS
# VL: DIQMTQSPSTLSASVGDRVTITCKASQDVGTAVDWYQQKPGQAPKLLIYWASTRHTGVPDRFSGSGSGTDFTLTISRLQPEDFAVYYCQQFTRYPLTFGQGTKVDIK
# B2: AB-05: Humanised anti-PSMA antibody, heavy chain SEQ ID No 5, light chain SEQ ID No 10 (antibody, V domains shown)
# VH: EVQLVQSGAEVKKPGASVKVSCKASGYTFTEYTIHWVRQAPGKGLEWIGNINPNNGGTTYNQKFEDRVTITVDKSTSTAYMELSSLRSEDTAVYYCAAYWLFDYWGQGTTVTVSS
# VL: DIQMTQSPSTLSASVGDRVTITCKASQDVGTAVDWYQQKPGQAPKLLIYWASTRHTGVPDRFSGSGSGTDFTLTISRLQPEDFAVYYCQQYNAYSLTFGQGTKVDIK
# B3: AB-04: Humanised anti-PSMA antibody, heavy chain SEQ ID No 9, light chain SEQ ID No 8 (antibody, V domains shown)
# VH: EVQLVQSGAEVKKPGASVKVSCKASGYTFTEYTIHWVRQAPGKGLEWIGNINPNNGGTTYNQKFEDRVTITVDKSTSTAYMELSSLRSEDTAVYYCAGAWTMDYWGQGTTVTVSS
# VL: DIQMTQSPSTLSASVGDRVTITCKASQDVGTAVDWYQQKPGQAPKLLIYWASTRHTGVPDRFSGSGSGTDFTLTISRLQPEDFAVYYCQQFTRYPLTFGQGTKVDIK
# B4: AB-09: Prior art anti-PSMA antibody, heavy chain SEQ ID No 15, light chain SEQ ID No 16 (antibody, V domains shown)
# VH: MELGLRWVLLVALLRGVQCQVQLVESGGGVVQPGRSLRLSCAASGFTFSNYVMHWVRQAPGKGLEWVAIIWYDGSNKYYADSVKGRFTISRDNSKNTLYLQMNSLRAEDTAVYYCAGGYNWNYEYHYYGMDVWGQGTTVTVSS
# VL: MRVPAQLLGLLLLCFPGARCDIQMTQSPSSLSASVGDRVTITCRASQGITNYLAWFQQKPGKAPKSLIYAASSLQSGVPSKFSGSGSGTDFSLTISSLQPEDFATYYCQQYNSYPITFGQGTRLEIK
# Test: Heat stress test, aggregation analysed by SEC
# Type: physicochemical
# Conditions: for Ab in aggregated form (%) / Ab in native conformation (%): post stress test: 0.5 mg/mL in PBS, 75° C. for 30 min, SEC % area
# Protocol: Antibody samples (0.5 mg/mL in PBS) were incubated at 75° C. for 30 min followed by incubation in an ice-bath for 5 min prior to being analysed for their extent of aggregation. Analysis of antibody solutions was carried out by Size Exclusion Chromatography (SEC) and by turbidity measurements.
# SEC was performed using a TOSOH Bioscience TSK gel Super SW 3000 column. UV absorbance at 280 nm was monitored during an isocratic elution with a 0.2 M Potassium phosphate buffer, pH 6.8 (0.2 M potassium chloride and 15% isopropanol). The elution times and number of peaks indicate whether the sample contains aggregated, degraded or native antibody. The % area under the curve (Abs280) was used to determine the quantity of each species present in the SEC analysis.
Molecule,Ab in aggregated form (%),Ab in native conformation (%),"Stability compared with AB-02 to AB-06 antibodies (heat stress test, in words)"
B1,64%,36%,
B2,98%,2%,
B3,73%,27%,
B4,100%,0%,less stable
